B1: TMEM106C (parent)
chain: TVPEILVHNIVIFMRTSVKISYIG
B2: BEX1 (parent)
chain: EENMERIGEEVRQLMEKLREKQLS

Variants of: B1
Assay: protein stability index of a GFP-peptide fusion (GPS, HEK-293T) (PSI 1-6); higher = more stable
Conditions: c terminus: a fixed tail appended
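Note: lentivirally expressed fusions sorted by FACS into six bins by GFP to DsRed ratio, PSI derived from sequencing read proportions per bin multiplied by bin number.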

In order of falling protein stability index:
1. TVPEILVHNIVIFMRTSAKISYIG  4.48
2. TVPEILVHNKVIFMRTSVKISYIG  4.3
3. TVPEILVHNIVIFMRTKVKISYIG  4.27
4. TVPEILVHNIVIFMRTSVKISVIG  4.14
5. TVPEILVHNIVIFSRTSVKISYIG  4.03
6. TVPEILVFNIVIFMRTSVKISYIG  3.98
7. TPPEILVHNIVIFMRTSVKISYIG  3.94
8. TVPEILCHNIVIFMRTSVKISYIG  3.89
9. TVPEILVHNIVIFMRYSVKISYIG  3.88
10. TVPETLVHNIVIFMRTSVKISYIG  3.88
11. TVPEILVHNIVIFMRTSVKYSYIG  3.86
12. TVPEILVHNIVIFMRTSVKISYIN  3.8
13. TVPEILVHNIVIFMMTSVKISYIG  3.77
14. TVPEILVHWIVIFMRTSVKISYIG  3.74
15. TVPEILVSNIVIFMRTSVKISYIG  3.74
16. TVPEILVHNIVEFMRTSVKISYIG  3.69
17. TVPEILWHNIVIFMRTSVKISYIG  3.68
18. TVPEILVHNIVIFMVTSVKISYIG  3.67
19. TVPEILVHNIVIFMRTSVDISYIG  3.61
20. TVPEILVHNIVIFMFTSVKISYIG  3.57
21. TVPDILVHNIVIFMRTSVKISYIG  3.56
22. TVPEILVDNIVIFMRTSVKISYIG  3.5
23. TVPEILVHNIVIFMRTSVKISYPG  3.49
24. TVPEILGHNIVIFMRTSVKISYIG  3.49
25. TVPEILVHNIVIFMRTSNKISYIG  3.44
26. SVPEILVHNIVIFMRTSVKISYIG  3.42
27. TVREILVHNIVIFMRTSVKISYIG  3.41
28. TVPEILVHNIVIFMRTSVKISYII  3.38
29. TVPEILVHNIVIFMRTSVKISYIE  3.36
30. TVKEILVHNIVIFMRTSVKISYIG  3.27
31. TVPEILVHNIVIFMRTSVKISYNG  3.26
32. TVPEILVHNIVIFMLTSVKISYIG  3.26
33. TVPEILVHNIVRFMRTSVKISYIG  3.25
34. TVPEILAHNIVIFMRTSVKISYIG  3.25
35. TVPEILVHNIVIFNRTSVKISYIG  3.25
36. TVPEILVHNIVIFMRTSVFISYIG  3.24
37. TVPEDLVHNIVIFMRTSVKISYIG  3.24
38. TVPEILVHNIVIFMRTSVKISYWG  3.22
39. TVPEILVNNIVIFMRTSVKISYIG  3.21
40. TVAEILVHNIVIFMRTSVKISYIG  3.18
41. TVPEFLVHNIVIFMRTSVKISYIG  3.14
42. TVPEILVHNIHIFMRTSVKISYIG  3.13
43. TVPEILVHNIGIFMRTSVKISYIG  3.12
44. TVPEILVHNIVIFMRLSVKISYIG  3.11
45. TVPEILVHNIVIFMRTYVKISYIG  3
46. TVPEILVHNIVIFCRTSVKISYIG  2.99
47. TVPEILVHGIVIFMRTSVKISYIG  2.98
48. TVPEILVHNIVIFMRNSVKISYIG  2.98
49. TVPEILVHNVVIFMRTSVKISYIG  2.92
50. TVPEALVHNIVIFMRTSVKISYIG  2.92
51. TVPEILVHNIVIFHRTSVKISYIG  2.91
52. TVPSILVHNIVIFMRTSVKISYIG  2.88
53. TVPEILVHIIVIFMRTSVKISYIG  2.82
54. TVPEILVHNIVKFMRTSVKISYIG  2.81
55. TVPEILVHNIVFFMRTSVKISYIG  2.8
56. TVPEIMVHNIVIFMRTSVKISYIG  2.78
57. TVPEILVHNIVIFMRTSVGISYIG  2.77
58. TVPEILVHNIVIFMRTSVKISYIW  2.75
59. WVPEILVHNIVIFMRTSVKISYIG  2.7
60. TVPEILVRNIVIFMRTSVKISYIG  2.67
61. TVPEMLVHNIVIFMRTSVKISYIG  2.67
62. TVPEILVHNIVVFMRTSVKISYIG  2.64
63. TVPEILVHNIVIFMRESVKISYIG  2.54
64. TVPEGLVHNIVIFMRTSVKISYIG  2.54
65. TVPEILVHNIDIFMRTSVKISYIG  2.52
66. TVPEILVHNPVIFMRTSVKISYIG  2.49
67. TVPEILVHNIVIFMRTSVKISDIG  2.46
68. TVPEILVHNIVIFMRTSWKISYIG  2.45
69. TVPEIQVHNIVIFMRTSVKISYIG  2.44
70. TVPEILRHNIVIFMRTSVKISYIG  2.44
71. TVPESLVHNIVIFMRTSVKISYIG  2.36
72. TVPENLVHNIVIFMRTSVKISYIG  2.34
73. TVPEILVHNIVIFMRTSVKISSIG  2.31
74. TVPEILVHNIVIFMRTLVKISYIG  2.29
75. TVPHILVHNIVIFMRTSVKISYIG  2.29
76. TVPEILVHNIRIFMRTSVKISYIG  2.22
77. TVPERLVHNIVIFMRTSVKISYIG  2.19
78. TVPEILVHHIVIFMRTSVKISYIG  2.15
79. TVPEILVHNIVIFMRTSVKRSYIG  2.13

Variants of: B2
Assay: as above
Conditions: c terminus: a fixed tail appended

In order of rising protein stability index:
1. DENMERIGEEVRQLMEKLREKQLS  2.37
2. EANMERIGEEVRQLMEKLREKQLS  2.97
3. EENMERIAEEVRQLMEKLREKQLS  3.25
4. EENMVRIGEEVRQLMEKLREKQLS  3.3
5. EENMWRIGEEVRQLMEKLREKQLS  3.31
6. EENMERILEEVRQLMEKLREKQLS  3.33
7. EENMERIWEEVRQLMEKLREKQLS  3.44
8. EEDMERIGEEVRQLMEKLREKQLS  3.5
9. LENMERIGEEVRQLMEKLREKQLS  3.54
10. RENMERIGEEVRQLMEKLREKQLS  3.55
11. EENQERIGEEVRQLMEKLREKQLS  3.58
12. EENMERIIEEVRQLMEKLREKQLS  3.62
13. EENMERIGDEVRQLMEKLREKQLS  3.63
14. EKNMERIGEEVRQLMEKLREKQLS  3.64
15. EENMERIGFEVRQLMEKLREKQLS  3.7
16. EENMEFIGEEVRQLMEKLREKQLS  3.72
17. EYNMERIGEEVRQLMEKLREKQLS  3.72
18. EENMCRIGEEVRQLMEKLREKQLS  3.74
19. EERMERIGEEVRQLMEKLREKQLS  3.79
20. KENMERIGEEVRQLMEKLREKQLS  3.81
21. EENMENIGEEVRQLMEKLREKQLS  3.84
22. EETMERIGEEVRQLMEKLREKQLS  3.84
23. EECMERIGEEVRQLMEKLREKQLS  3.89
24. EENMLRIGEEVRQLMEKLREKQLS  3.89
25. EENMEIIGEEVRQLMEKLREKQLS  3.92
26. EEQMERIGEEVRQLMEKLREKQLS  3.94
27. EEAMERIGEEVRQLMEKLREKQLS  3.99
28. SENMERIGEEVRQLMEKLREKQLS  4
29. EINMERIGEEVRQLMEKLREKQLS  4
30. EENMQRIGEEVRQLMEKLREKQLS  4.01
31. EENMERIGNEVRQLMEKLREKQLS  4.02
32. EENMEQIGEEVRQLMEKLREKQLS  4.04
33. EENMERIEEEVRQLMEKLREKQLS  4.04
34. EMNMERIGEEVRQLMEKLREKQLS  4.05
35. ECNMERIGEEVRQLMEKLREKQLS  4.07
36. EENMERIGVEVRQLMEKLREKQLS  4.07
37. EENMERIHEEVRQLMEKLREKQLS  4.09
38. YENMERIGEEVRQLMEKLREKQLS  4.14
39. EENLERIGEEVRQLMEKLREKQLS  4.16
40. EENMERIREEVRQLMEKLREKQLS  4.18
41. EQNMERIGEEVRQLMEKLREKQLS  4.2
42. EENMERIGKEVRQLMEKLREKQLS  4.2
43. ESNMERIGEEVRQLMEKLREKQLS  4.23
44. EENMERKGEEVRQLMEKLREKQLS  4.23
45. EENMECIGEEVRQLMEKLREKQLS  4.25
46. EENMARIGEEVRQLMEKLREKQLS  4.28
47. EENIERIGEEVRQLMEKLREKQLS  4.28
48. CENMERIGEEVRQLMEKLREKQLS  4.29
49. NENMERIGEEVRQLMEKLREKQLS  4.31
50. FENMERIGEEVRQLMEKLREKQLS  4.32
51. EEWMERIGEEVRQLMEKLREKQLS  4.32
52. EENMERIKEEVRQLMEKLREKQLS  4.32
53. EENMRRIGEEVRQLMEKLREKQLS  4.33
54. EPNMERIGEEVRQLMEKLREKQLS  4.34
55. EENMERIQEEVRQLMEKLREKQLS  4.36
56. EHNMERIGEEVRQLMEKLREKQLS  4.37
57. EENMERIGIEVRQLMEKLREKQLS  4.39
58. QENMERIGEEVRQLMEKLREKQLS  4.41
59. EFNMERIGEEVRQLMEKLREKQLS  4.46
60. EENMERISEEVRQLMEKLREKQLS  4.47
61. EDNMERIGEEVRQLMEKLREKQLS  4.48
62. EENMERIYEEVRQLMEKLREKQLS  4.5
63. EENMERIGSEVRQLMEKLREKQLS  4.51
64. EWNMERIGEEVRQLMEKLREKQLS  4.53
65. EENMFRIGEEVRQLMEKLREKQLS  4.54
66. EENMERITEEVRQLMEKLREKQLS  4.55
67. EENYERIGEEVRQLMEKLREKQLS  4.55
68. ERNMERIGEEVRQLMEKLREKQLS  4.55
69. TENMERIGEEVRQLMEKLREKQLS  4.56
70. EENMEYIGEEVRQLMEKLREKQLS  4.57
71. EENMERIGGEVRQLMEKLREKQLS  4.67
72. EENMEWIGEEVRQLMEKLREKQLS  4.69
73. EEPMERIGEEVRQLMEKLREKQLS  4.71
74. EENMERICEEVRQLMEKLREKQLS  4.73
75. EEFMERIGEEVRQLMEKLREKQLS  4.74
76. EENMERLGEEVRQLMEKLREKQLS  4.74
77. EENRERIGEEVRQLMEKLREKQLS  4.75
78. EENMERIGAEVRQLMEKLREKQLS  4.76
79. IENMERIGEEVRQLMEKLREKQLS  4.77
80. EENMPRIGEEVRQLMEKLREKQLS  4.77
81. EENMERFGEEVRQLMEKLREKQLS  4.78
82. EENMEKIGEEVRQLMEKLREKQLS  4.8
83. EENMEVIGEEVRQLMEKLREKQLS  4.81
84. EENDERIGEEVRQLMEKLREKQLS  4.81
85. EENMERMGEEVRQLMEKLREKQLS  4.83
86. EENMETIGEEVRQLMEKLREKQLS  4.85
87. EENMERCGEEVRQLMEKLREKQLS  4.87
88. EENMERYGEEVRQLMEKLREKQLS  4.92
89. EENMEAIGEEVRQLMEKLREKQLS  4.94
90. EENMNRIGEEVRQLMEKLREKQLS  4.96
91. EENMERGGEEVRQLMEKLREKQLS  4.97
92. EENMERIGPEVRQLMEKLREKQLS  4.98
93. EENMEPIGEEVRQLMEKLREKQLS  5.03
94. EENTERIGEEVRQLMEKLREKQLS  5.03
95. EEGMERIGEEVRQLMEKLREKQLS  5.04
96. EENHERIGEEVRQLMEKLREKQLS  5.09
97. EENMERRGEEVRQLMEKLREKQLS  5.16
98. EENMERSGEEVRQLMEKLREKQLS  5.17
99. EENMERTGEEVRQLMEKLREKQLS  5.18
100. EENMEGIGEEVRQLMEKLREKQLS  5.28
101. EENEERIGEEVRQLMEKLREKQLS  5.3
102. EENMERQGEEVRQLMEKLREKQLS  5.33
103. EENKERIGEEVRQLMEKLREKQLS  5.35
104. EENMEHIGEEVRQLMEKLREKQLS  5.43
105. EENSERIGEEVRQLMEKLREKQLS  5.45
106. EENGERIGEEVRQLMEKLREKQLS  5.48
107. EENMEEIGEEVRQLMEKLREKQLS  5.71
108. EENMERHGEEVRQLMEKLREKQLS  5.86
109. EENPERIGEEVRQLMEKLREKQLS  5.96

— the supplement of paper PMC10567573
